T1: human 5T4 antigen (Homo sapiens, UniProt Q13641)
T1 sequence (Q13641 32-420): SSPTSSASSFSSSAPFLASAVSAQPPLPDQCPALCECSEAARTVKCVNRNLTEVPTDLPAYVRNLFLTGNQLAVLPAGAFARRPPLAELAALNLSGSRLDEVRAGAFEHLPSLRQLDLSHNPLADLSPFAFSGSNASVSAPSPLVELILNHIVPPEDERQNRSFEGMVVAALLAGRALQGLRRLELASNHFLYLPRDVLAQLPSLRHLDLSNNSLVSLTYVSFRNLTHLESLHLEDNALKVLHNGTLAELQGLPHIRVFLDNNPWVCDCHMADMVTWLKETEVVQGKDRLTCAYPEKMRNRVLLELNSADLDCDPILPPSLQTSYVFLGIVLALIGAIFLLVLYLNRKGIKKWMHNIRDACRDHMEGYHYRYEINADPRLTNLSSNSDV

T2: rat 5T4 ectodomain/Fc fusion protein (Rattus norvegicus, UniProt Q5PQV5)
T2 construct: rat 5T4 (amino acids 1-361); human IgG1 Fc; made in house; host or cells: COS-1 cells (transient transfection)
T2 sequence (Q5PQV5 32-361): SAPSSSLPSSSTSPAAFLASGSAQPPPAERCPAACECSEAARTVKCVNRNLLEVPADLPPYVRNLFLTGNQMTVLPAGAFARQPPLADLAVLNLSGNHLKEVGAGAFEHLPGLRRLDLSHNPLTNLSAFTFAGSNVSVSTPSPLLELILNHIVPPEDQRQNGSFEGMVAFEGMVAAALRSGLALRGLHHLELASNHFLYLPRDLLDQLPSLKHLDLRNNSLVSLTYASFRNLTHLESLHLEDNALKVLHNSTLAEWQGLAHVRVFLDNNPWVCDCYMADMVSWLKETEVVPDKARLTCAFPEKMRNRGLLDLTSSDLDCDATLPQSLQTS

T3: mouse 5T4 ectodomain/Fc fusion protein (Mus musculus, UniProt Q9Z0L0)
T3 construct: prepared using mouse 5T4 (amino acids 1-361); human IgG1 Fc; made in house; host or cells: COS-1 cells (transient transfection)
T3 sequence (Q9Z0L0 32-361): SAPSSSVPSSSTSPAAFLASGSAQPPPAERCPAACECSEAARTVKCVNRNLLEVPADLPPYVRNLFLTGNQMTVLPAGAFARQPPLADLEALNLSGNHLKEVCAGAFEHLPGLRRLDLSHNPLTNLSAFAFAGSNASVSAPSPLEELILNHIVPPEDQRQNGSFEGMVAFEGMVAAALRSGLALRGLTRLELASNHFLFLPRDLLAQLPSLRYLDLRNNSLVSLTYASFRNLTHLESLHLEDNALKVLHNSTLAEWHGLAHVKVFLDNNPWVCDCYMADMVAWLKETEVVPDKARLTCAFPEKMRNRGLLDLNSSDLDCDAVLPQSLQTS


Experiments:
[1] = molecular target: T1, human 5T4 antigen; experiment: BIACORE analysis of antibody binding to human 5T4 antigen immobilized on a CM5 chip; conditions: chimeric and humanized antibodies, Table 12
Procedure: To assess the binding specificity and affinity of the A1, A2, and A3 antibodies, BIACORE® analysis was performed using human 5T4 antigen immobilized on a CM5 chip. BIACORE® technology utilizes changes in the refractive index at the surface layer upon binding of the antibody to the 5T4 antigen immobilized on the layer. Binding is detected by surface plasmon resonance (SPR) of laser light refracting from the surface. Analysis of the signal kinetics on rate and off rate allows discrimination between non-specific and specific interactions. The H8 anti-5T4 antibody was used as a control. H8 is a hybridoma-generated monoclonal mouse IgG1 antibody described in PCT International Publication No. WO 98/55607 and in Forsberg et al. (1997) J. Biol. Chem. 272(19):[…].
To assess the binding specificity and affinity of the chimeric and humanized H8, A1, A2, and A3 antibodies, BIACORE® analysis was performed using human 5T4 antigen immobilized on a CM5 chip. See Example 2.

[2] = molecular target: T2, rat 5T4 ectodomain/Fc fusion protein; experiment: Cross-species reactivity ELISA, 5T4 ectodomain/Fc fusion proteins; format: binding; parameters: key: +: binding; −: no binding; +/−: partial binding
Procedure: (§1) The cross-species reactivity of anti-5T4 antibodies disclosed herein was assayed to determine relevant species for in vivo efficacy studies and toxicology analysis. Correlation of binding activity and relatedness of the different 5T4 ectodomains was also used to further describe the epitope bound by each antibody. Binding assays were performed using 5T4 ectodomains from various species fused to human IgG1 Fc. To assay binding of anti-5T4 antibodies, 5T4 ectodomain/Fc fusion proteins were transiently transfected into COS-1 cells, and ELISA assays were performed. Non-relevant human IgG4 and IgG1 antibodies were used as controls.

[3] = molecular target: T3, mouse 5T4 ectodomain/Fc fusion protein; experiment: as above; format: binding; parameters: key: +: binding; −: no binding; +/−: partial binding
Procedure: as §1

[4] = molecular target: T1, human 5T4 antigen; experiment: BIACORE competition assay: second antibody after saturation with first antibody; format: binding
Procedure: Epitope mapping of the H8, A1, A2, and A3 antibodies was also performed using BIACORE® using a CM5 chip with bound human 5T4 antigen. The chip was saturated with H8, A1, A2, or A3 antibody, and a first response was measured. The chip was then saturated with a second antibody from among the H8, A1, A2, and A3 antibodies, and a second response was measured. For multiple experiments, the chip was regenerated by dissociation of the bound antibodies in 10 mM glycine, pH 1.5, followed by a buffer wash. The percentages shown are the response units measured upon binding by a second antibody directly to the CM5 chip divided by the response units measured upon binding of the second antibody to a CM5 chip saturated with a first antibody.
The epitopes bound by the H8 and A3 antibodies are sterically close to each other such that the rate of association with antigen is decreased when binding of H8 is assayed in the presence of A3, and vice versa. Similar results were obtained using the chimeric and humanized H8, A1, A2, and A3 antibodies, which were prepared as described in Example 7 herein below.

[5] = first antibody chimeric A3, 19 seconds after injection of second antibody
[6] = first antibody chimeric A3, 37.5 seconds after injection of second antibody
[7] = first antibody chimeric A3, 75 seconds after injection of second antibody
[8] = first antibody chimeric A3, 150 seconds after injection of second antibody
[9] = first antibody chimeric A3, 300 seconds after injection of second antibody
[10] = first antibody chimeric A3, 600 seconds after injection of second antibody

| Molecule | KA [1] [M⁻¹] | ka [1] [M⁻¹ s⁻¹] | kd [1] [s⁻¹] | cross-reactivity (binding class) [2] | cross-reactivity (binding class) [3] | Percentage of Second Antibody Bound Following Saturation With First Antibody [4, 5] [%] | Percentage of Second Antibody Bound Following Saturation With First Antibody [4, 6] [%] | Percentage of Second Antibody Bound Following Saturation With First Antibody [4, 7] [%] | Percentage of Second Antibody Bound Following Saturation With First Antibody [4, 8] [%] | Percentage of Second Antibody Bound Following Saturation With First Antibody [4, 9] [%] | Percentage of Second Antibody Bound Following Saturation With First Antibody [4, 10] [%] | further results |
| --- | --- | --- | --- | --- | --- | --- | --- | --- | --- | --- | --- | --- |
| Chimeric A3 + C91Y: chimeric A3 antibody bearing C91Y mutation in the heavy chain variable region (antibody, V domains shown) VH: EVQLVESGGGLVQPKGSLKLSCAASGFTFNTYAMNWVRQAPGKGLEWVARIRSKSNNYATYYADSVKDRFTISRDDSQSMLYLQMNNLKTEDTAMYYCVRQWDYDVRAMNYWGQGTSVTVSS VL: DIVMTQSHIFMSTSVGDRVSITCKASQDVDTAVAWYQQKPGQSPKLLIYWASTRLTGVPDRFTGSGSGTDFTLTISNVQSEDLADYFCQQYSSYPYTFGGGTKLEIK | 1.7e+09 | 27000 | 1.6e-05 |  |  |  |  |  |  |  |  | Kd [1]: 5.9 nM |
| chimeric A2: chimeric A2 antibody: murine A2 variable regions, human IgG4 heavy chain and human kappa light chain constant regions (antibody, V domains shown) VH: QVQLQQSRPELVKPGASVKMSCKASGYTFTDYVISWVKQRTGQGLEWIGEIYPGSNSIYYNEKFKGRATLTADKSSSTAYMQLSSLTSEDSAVYFCAMGGNYGFDYWGQGTTLTVSS VL: QIVLTQSPAIMSASLGERVTLTCTASSSVNSNYLHWYQQKPGSSPKLWIYSTSNLASGVPARFSGSGSGTSYSLTISSMEAEDAATYYCHQYHRSPLTFGAGTKLELK | 5.7e+08 | 140000 | 0.00025 | − | − | 89.2 | 88.4 | 89.8 | 91.5 | 92.9 | 94.3 | Percentage of Second Antibody Bound Following Saturation With First Antibody ([4]; first antibody chimeric A1, 19 seconds after injection of second antibody): 102.9%; Percentage of Second Antibody Bound Following Saturation With First Antibody ([4]; first antibody chimeric A1, 37.5 seconds after injection of second antibody): 93.5%; Percentage of Second Antibody Bound Following Saturation With First Antibody ([4]; first antibody chimeric A1, 75 seconds after injection of second antibody): 90.1%; Percentage of Second Antibody Bound Following Saturation With First Antibody ([4]; first antibody chimeric A1, 150 seconds after injection of second antibody): 89.0%; Percentage of Second Antibody Bound Following Saturation With First Antibody ([4]; first antibody chimeric A1, 300 seconds after injection of second antibody): 88.9%; Percentage of Second Antibody Bound Following Saturation With First Antibody ([4]; first antibody chimeric A1, 600 seconds after injection of second antibody): 89.1% |
| chimeric A1: chimeric A1 antibody: murine A1 variable regions, human IgG4 heavy chain and human kappa light chain constant regions (antibody, V domains shown) VH: QIQLVQSGPELKKPGETVKISCKASGYTFTNFGMNWVKQGPGEGLKWMGWINTNTGEPRYAEEFKGRCAFSLETTASTAYLQINNLKNEDTATYFCARDWDGAYFFDYWGQGTTLTVSS VL: SIVMTQTPKFLLVSAGDRVTITCKASQSVSNDVAWYQQKPGQSPKLLINFATNRYTGVPNRFTGSGYGTDFTFTISTVQAEDLALYFCQQDYSSPWTFGGGTKLEIK | 2.3e+09 | 150000 | 6.7e-05 | +/− | − | 98.8 | 96.5 | 97.0 | 98.0 | 98.8 | 99.6 | Percentage of Second Antibody Bound Following Saturation With First Antibody ([4]; first antibody chimeric A2, 19 seconds after injection of second antibody): 92.5%; Percentage of Second Antibody Bound Following Saturation With First Antibody ([4]; first antibody chimeric A2, 37.5 seconds after injection of second antibody): 90.6%; Percentage of Second Antibody Bound Following Saturation With First Antibody ([4]; first antibody chimeric A2, 75 seconds after injection of second antibody): 91.4%; Percentage of Second Antibody Bound Following Saturation With First Antibody ([4]; first antibody chimeric A2, 300 seconds after injection of second antibody): 93.9%; Percentage of Second Antibody Bound Following Saturation With First Antibody ([4]; first antibody chimeric A2, 600 seconds after injection of second antibody): 95.5% |
| Chimeric A1 + C67F: chimeric A1 antibody bearing C67F mutation in the heavy chain variable region (antibody, V domains shown) VH: QIQLVQSGPELKKPGETVKISCKASGYTFTNFGMNWVKQGPGEGLKWMGWINTNTGEPRYAEEFKGRFAFSLETTASTAYLQINNLKNEDTATYFCARDWDGAYFFDYWGQGTTLTVSS VL: SIVMTQTPKFLLVSAGDRVTITCKASQSVSNDVAWYQQKPGQSPKLLINFATNRYTGVPNRFTGSGYGTDFTFTISTVQAEDLALYFCQQDYSSPWTFGGGTKLEIK | 2.6e+09 | 170000 | 6.3e-05 |  |  |  |  |  |  |  |  |  |

From patent US20070231333A1, “ANTI-5T4 ANTIBODIES AND USES THEREOF” (Wyeth, priority 2006, published 2007)
